Reference: IntAct's records for PubMed 12713445

Experiments:
[1] = biological target: dlg2_human DLG2 (UniProt Q15700)
[2] = biological target: dlg3_human DLG3 (UniProt Q92796)
UniProt Q92796, sequence (Q92796 whole entry): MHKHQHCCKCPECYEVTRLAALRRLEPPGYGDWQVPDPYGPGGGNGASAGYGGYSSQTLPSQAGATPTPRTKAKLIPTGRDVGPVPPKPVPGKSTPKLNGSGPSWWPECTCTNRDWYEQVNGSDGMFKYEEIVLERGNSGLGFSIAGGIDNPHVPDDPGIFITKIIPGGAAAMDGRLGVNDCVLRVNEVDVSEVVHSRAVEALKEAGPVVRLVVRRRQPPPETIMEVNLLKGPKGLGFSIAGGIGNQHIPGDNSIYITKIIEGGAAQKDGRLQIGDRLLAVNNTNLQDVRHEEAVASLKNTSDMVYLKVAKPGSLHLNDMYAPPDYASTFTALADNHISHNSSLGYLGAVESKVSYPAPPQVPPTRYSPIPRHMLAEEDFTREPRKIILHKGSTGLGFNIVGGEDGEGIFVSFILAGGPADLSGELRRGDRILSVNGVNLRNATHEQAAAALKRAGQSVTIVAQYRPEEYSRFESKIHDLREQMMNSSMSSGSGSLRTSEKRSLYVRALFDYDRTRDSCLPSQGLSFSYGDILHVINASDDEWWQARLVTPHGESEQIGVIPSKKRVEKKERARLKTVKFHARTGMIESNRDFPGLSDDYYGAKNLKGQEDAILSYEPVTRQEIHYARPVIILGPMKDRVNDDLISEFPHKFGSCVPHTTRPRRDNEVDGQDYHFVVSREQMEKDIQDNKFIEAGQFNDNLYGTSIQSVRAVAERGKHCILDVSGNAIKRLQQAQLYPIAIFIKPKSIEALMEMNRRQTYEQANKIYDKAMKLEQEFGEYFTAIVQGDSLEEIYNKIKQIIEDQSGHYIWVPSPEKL

UniProt Q15700, sequence (Q15700 whole entry, looked up): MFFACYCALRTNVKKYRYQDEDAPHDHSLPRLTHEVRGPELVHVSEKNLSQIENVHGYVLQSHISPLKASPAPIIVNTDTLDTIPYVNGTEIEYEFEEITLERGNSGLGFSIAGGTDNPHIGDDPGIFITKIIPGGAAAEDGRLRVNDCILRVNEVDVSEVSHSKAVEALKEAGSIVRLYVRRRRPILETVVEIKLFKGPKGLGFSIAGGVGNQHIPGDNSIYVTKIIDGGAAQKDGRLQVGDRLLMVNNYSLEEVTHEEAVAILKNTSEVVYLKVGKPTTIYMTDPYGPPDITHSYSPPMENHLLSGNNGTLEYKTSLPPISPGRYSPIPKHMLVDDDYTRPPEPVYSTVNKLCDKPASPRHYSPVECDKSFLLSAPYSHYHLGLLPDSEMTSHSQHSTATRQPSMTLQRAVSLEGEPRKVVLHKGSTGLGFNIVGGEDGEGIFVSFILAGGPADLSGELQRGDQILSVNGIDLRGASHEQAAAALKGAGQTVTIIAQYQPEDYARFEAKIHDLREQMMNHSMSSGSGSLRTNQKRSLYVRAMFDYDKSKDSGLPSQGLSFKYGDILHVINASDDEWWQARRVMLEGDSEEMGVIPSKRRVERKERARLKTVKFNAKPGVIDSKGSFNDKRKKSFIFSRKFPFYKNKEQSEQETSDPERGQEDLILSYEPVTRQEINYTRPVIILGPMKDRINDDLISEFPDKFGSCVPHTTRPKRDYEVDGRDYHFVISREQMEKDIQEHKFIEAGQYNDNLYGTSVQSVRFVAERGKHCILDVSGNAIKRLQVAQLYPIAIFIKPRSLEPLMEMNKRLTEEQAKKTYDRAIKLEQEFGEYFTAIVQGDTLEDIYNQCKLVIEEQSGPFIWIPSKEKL

- effect of a mutation on the interaction [1]: disrupting interaction strength
- effect of a mutation on the interaction [2]: disrupting interaction strength
Substance: Low-density lipoprotein receptor-related protein 2 (Homo sapiens), P98164 S4653V;V4655S
